# Results as given in publication doi:10.1101/2023.11.01.565197 (bioRxiv, 2023).
# Target: the molecule itself
# Experiment: cryo-EM structure
protein,measurement,value
rabbit Slo1 (KCNMA1) (natural protein) not shown,stoichiometry N,4
